Reference: the nanobody polyreactivity screen of Harvey et al. (2022)

Assay: yeast display, Sf9 membrane polyspecificity reagent, FACS + sequencing; frameworks hold sequencing errors
Outline: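 Nanobodies from a synthetic yeast display library (Saccharomyces cerevisiae BJ5465), induced 36–48 hours with galactose, were stained 1 hour at 4 °C with 10% biotinylated, detergent-solubilized Sf9 membrane reagent, enriched on streptavidin microbeads, then FACS-sorted. Anti-HA (expression) and streptavidin (reagent binding) fluorescence set low and high (top ~1%) gates. Polyreactivity labels come from the gate of origin. Genes were colony-PCR amplified, MiSeq 2 × 250 sequenced and filtered by CDR length.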

| Sequence | polyreactivity (PSR sort gate) |
| --- | --- |
| QVQLVESGGGLVQAGGSLRLSCAASGSTFQFYAMGWYRHAPGKERELVAAIDGSDGDTYYADSVKGRFTISRDNAKNTVYLQMNSLKPEDTAVYYCNADRDALVGYDYDYWGQGTQVTVSS | low polyreactivity |
| QVHLVESGGGLVQAGGSLRLSCAASGRIFADYAMGWYRQAPWKERELVADIRQSGGRTYYADSVKGRFTISRDYAKNTVDLQMNSLKPEDTAVYYCATDYGSWGDYSGKYDYWGQGTQVTVSS | low polyreactivity |
| QVQLVESGGGLVQAGGSLRLSCAASGYIFYRNAMGWYRQAPVKEREFVAAISSSGVSTYYADSVKGRFTISRDNAKNTVYLQMNSLKPEDTAVYYCAASYLTWKRRYDYWGQGTQVTVSS | high polyreactivity |
| QVQLVESGGGLVQAGGSLRVSCAASGRIVWPNTMGWSRQAPGKERELVAAISWSGGSTYYADSVKGRFTISRDNAKNTVYLHRNSLKPEHTAVYSCAKRPPHYSWPKIIDFGSWGQGTQVTVSS | high polyreactivity |
| QVQLVESGGGLVQAGGSLRLSCAASGSIFLYNDMGWYRQAPGKERELVAAISSGGNTNYADSVTGRFTISRDNAKNTVYLQMNSLKPEDTAVYYCNAAWIRVFQYTLYKYVYWGQGTQVTVSS | low polyreactivity |
| QVQLVESGGGLVQAGGSLRLSCAASGSTFSLYAMGWYRQAPGKERELVARISYTDGSTYYADSVKGRFTISRDNAKNTVYLQMNSLKPEDTAVYYCAAEAWYSYTLEDYWGQGTQVTVSS | low polyreactivity |
| QVQLVESGGGLVQAGGSLRLSCAASGFIFSYYAMGWYRQAPGKERELVAANSSSGGTTYADSVKGRFTISRDNAKNTVYLQMNSLKPEDTAVYYCARVQYWFYKPMYYWGQGTQVTVSS | high polyreactivity |
| QVQLVESGGGLVQAGGSLRLSCAASGSIFYGNAMGWYRQAPGKERELVAAISKRGGSTYYADSVKGRFTISRDNAKNTVYLQMNSLKPEDTAVYYCAKATAGHTEYYSWGQGTQVTVSS | high polyreactivity |
| QVQLVESGGGLVQAGGSLRLSCAASGIIFKYYAMGWYRQAPGKERELVAAITRSGGSTYYADSVKGRFTISRDNAKNTVYLQMYSLKPEDTAVYYCAAQTGYSYGITWQFTKYNYWGQGTQVTVSS | low polyreactivity |
| QVQLVESGGGLVQAGGSLRLSCAASGSTIPSYAMGWYRQAPGKERELVASITYSDGTTRYADSVKGRFTISRDNAKNTVYLQMNSLKPEDTAVYYCAKYYYTSIVGYDSWGQGTQVTVSS | low polyreactivity |
| QDQLVESGGGLVQAGGSLRLSCAASGIIFKYYAMGWYRQAPGKERELVAAITSGGSTNYADSVKGRFTISRDNAKNTVYLQMNSLKPEDTAVYYCAKRFYYRNRFDYWGHGTQVTVSS | low polyreactivity |
| QVQLVESGGGLVQAGGILRLSCAASGFIFVDYSMGWYREAPAKESQLVAAISGRDGSTYYADSVKGRFTISRDNAKNTVYLQMNSLKPEDTAVYYCAADRIHSGTLYDYDYWGQGTQVTESS | low polyreactivity |
| QVQLVESGGGLVQAGGSLRLSCAASGSTFWVYGMGWYRQAPGKERELVADITSIGGSTYYADSVKGRFTISRDNAKNTVYLQMNSLKPEDTAVYYCAARETWYPYYWMGYWGQGTQVTVSS | high polyreactivity |
| QVQLVESGGGLVQAGGSLRLSCAASGSTFGYNAMGWYRQAPGKERELVAGITGSGTRTYYADSVKGRFTISRDNAKNTVYLQMNSLKPEDTAVYYCAATPTRRYYRQSAYDYWGQGTQVTVSS | high polyreactivity |
| QVQLVESGGGLVQAGGSLRLSCAASGFIFYSYAMGWYRQAPGKERELVAAISWSGGRTYYADSVKGRFTISRDNAKNTVYLQMNSLKPEDTAVYYCNADDYSFSFTVPYYIEYVYWGQGTQVTVSS | high polyreactivity |
| QVQLEESGGGLVQAGGSLRLSCAASGFIFYQYAMGSYRQAPGKVRELVAAISWNGGRTYYADSVKGRFTISRDNAKNTVYLQMNSLKPEDTAVYYCAAPVLTSDYTLDSYYWGQGTQVTVSS | high polyreactivity |
| QVQLVESGGGLVQAGGSLRLSCAASGRIFTEYVMGWYRQAPGKERELVAAAITRGGSTNYADSVKGRFTISRDNAKNTVYLQMNSLKPEDTAVYYCNKDDWPVSRQLYTGKYDSWGQGTQVTVSS | low polyreactivity |
| QVQLVESGGGLVQAGGSLRLSCAASGFTFAVNAMGWYRQAPGKERELVAAISKSGGRTYYADSVKGRFTISRDNAKNTVYLQMNSLKPEDTAVYYCAAEGPGYTYDYWGQGTQVTVSS | high polyreactivity |
| QVQLVESGGGLVQSGGSLRLSSASSGRTFSGYVMGWYRQAPGKEREFVAVISRGGSTYYADSVKGRFTISRDNAKNTVYLQMNSLKPEDTAVYYCAGRLTYTGGQGAYDYWGQGTQVTVSS | high polyreactivity |
| QVQLVESGGGLVQAGGSLRLSCAASGTIFDDNAMGWYRHAPGKERELVAAISANDGSTYYADSVKGRFTISRDNAKNTVYLQMNSLKQEDTAVYYCAVLRVETVDIWEYDYWGQGTQVTVTS | low polyreactivity |
| QVQLVESGGGLVQAGGSLRLSCAAYGRIFIGYTMGWYRQAPGNERELVAVISYRGGRTYYADSVKGRFTISRDNAKNTVYLQMNSLKPEDTAVYYCAAYRPGVISGFDYWGQGTQVTVSS | high polyreactivity |
| QVQLVESGGGLVQAGGSLRLSCAATGSTFAHNSMGWYRQAPGKESQFVAAISARGGMTYYADSVKGRFTISRDYAKNTVYLQMNSLKPEDTAVYYCAAVFGDYWSSQWSYAYGYWGQGTQVTVSS | high polyreactivity |

| Sequence | polyreactivity (PSR sort gate) |
| --- | --- |
| QVQLEESGVGLVQAGGSLRLSCAASGFTFYYNAMGWYRQAPGKERELVAGITWSGGSTYYADSVKGRFTISRDNAKNTVYLQMNSLKPEDTAVYYFAKDHQDSDYDYWGQGTQVTVSS | high polyreactivity |
| QVQLVESGRGIVQAGGSLRISWAASGITLAGYVMGLYRQAPGKESELVADISSSGDSTYYADSVKGRFTMSRDNAKNTVYLQMNSLKPEDTAVYYCAAKCGRTGSFDYWGQGTQVTVSS | low polyreactivity |
| QVQLVESGGGLVQAGGSLRLSCADSGRTFYYYAMGWYRQAPGKERELVASITYYADSVKGRFTISRDNAKNTVYLQMNSLKPVDTAVYYCAKDLYSNDLYRRYDYWGQGTQVTVSS | low polyreactivity |
| QVQLVESGGGLVQAGGSLRLSCAASGSTINYYAMGWYRQAPGKERELVAAISSGTSTYYADSVKGRFTISRDNAKNTVYLQMNSLKPEDTAVYYCARRYYYQYRYDYWGQGTQVTVSS | high polyreactivity |
| QVQLVESGGGLFQAGGSLRLSCAATGITFFRYPMGWYRQAPGKERELVAVITRGGTTYYADSVKGRFTISRDNAKNNAYLQINSLKPEDTAVSYCAAKPYYGYDYWGQGTQVTVSW | high polyreactivity |
| QVQLVESGGGLVQAGGSLSLSCAASGGTFYQYAMGWYRQAPGKERELVAAISTSGARTYYADSVKGRFTISRDNAKNTVYLQMNSLKTEDTAVYYCAADHIRGGLDYWGQGTQVTVSS | high polyreactivity |
| QVQLVESGGGLVQAGGSLRLSCAASGSNSGYYVMGWYRQAPGKERELVAAITWRGGSTYYADSVKGRFTISRDNAKNTVYLQMNSLKPEDTAVYYCARSRYLWYTVPPKYGYWGQGTQVTVSS | high polyreactivity |
| QVQLVESGGGLVQAGGSLRLSCAASGRTFSGYAMGWYRQAPGKERELVAAITNRGGTYYADSVKGRFTISRDNAKNTVYVQMNSLKPEDTAVYSCAAYKYYARWVRGYDSWGQGTQVTVSS | high polyreactivity |
| QVHLVESGGGLVQAGGSLRLSCAASGFTFYYYAMGWYRQAPGKEREFVAAITRGGGSTYYADSVKGRFTISRDKAKNSVYLQMNSLKPEDTAVYYCAADPQSTIRDYWGQGTQVTVSS | high polyreactivity |
| QVHLVDSGGGLVQAGGSLSLSCAYSGSIFLTNAMGWYRHAPGKERELVDAITGDGSTNYADSVKGRFTISRDNAKNTVYLKMNSLIPEDTAVYYCDKDRGWSQWVDYDYWGQGTQVTVSS | low polyreactivity |
| QVQLVESGGGLVQGGGSLRLSCDDSGRNFNAYSRGWYRQATAKERELVAAISSRGGSTYYADSVKGRFTISRDNEMNSVYLKMNSLQPEDSAVYYFAAGIYTATGYGYWGQGTQVTVSS | high polyreactivity |
| QVQLVESGGGLVQAGGSLRLSCAASGFTFRYYAMGWYRQAPGKERELVAAINYSGGSTFYADSVKGRFTISRDNAKNTVYLQMNSLKPEDTAVYYCAATRLTPYIYGGKYNYWGQGTQVTVSS | high polyreactivity |
| QVQLVDSGGGLVQAGGSLRLSCAASGSTFYFKAMGWYRQAPGKEREFVATIRSGGSTYYADSVKGRFTISRDYAKNSVYLQMNSLTPEDTAVYYCAADLVDSYQWSIFLYGYWGQGTQVTVSW | low polyreactivity |
| QVQLVESGGGLVQAGGSLRLSCAASGSIFSSNAMGWYRQAPGKERELVAAITRGGRTTYADSVKGRFTISRDNAKKTVYLQMNSLKPEDTAVYYCNAESYLTGWWVDYWGQGTQVTVSS | low polyreactivity |
| QVQLVESGGGLVQAGGSLRLSCAASGRTFYGNAIAWYRQAPGKERELVAAINRGGNTNYADSVKGRFTISRDNAKNTVYLQMNSLKPEDTAVYYCAARPYYRYFEYWGQGTQVTVSS | high polyreactivity |
| QVQLVESGGGLVQAGGSLRLSCAASGRIFRYYAMGCYRQAPGKERELVAAITRGGSTNYADSVKGRFTISRDNAKNTVYLQMNSLKPEDTAVYYCAAAYRGRYKYYYWGQGSQVTVSS | high polyreactivity |
| QVQLVESGGGLVQAGGSLRLSCAASGRIFQHNTMGWYRQAPGKERELVAAITRGGRTNYADSVKGRFTISRDNAKNTVYLQMNSLKPEDTAVYYCAARYVERHTDYYYWGQGTQVTVSS | low polyreactivity |
| QVHLVESGGGLVQAGGSLRLSCAASGITVGSYAMGWYRQAPGKERELVAAITSGGGTNYADSVKGRFTISRDNAKNTVYLEMKSLKPEDTAVYYCAARYYYLGTRYGYWGQGTQVTVSS | low polyreactivity |
| QVQLVESCGGLVQAGGSLRLSCAASGFIFTYYVMGWYRQAPGKERELVATISISDGTTYADSVKGRFTISRDNAKNTVYLQMNSLKPEDTAVYYCAADNSFTDNYWGQGTQVTVSS | low polyreactivity |
| QVQLVESGGGLVQAGGSLRLSCAASGSIFVLYAMGWYRQAPGKERELVAAINYDGASTYYADSVKGRFTISRDNAKNTVYLQMNSLKPEDTAVYYCAARWQFNIDVQLYLFEYWGQGTEVTVSS | low polyreactivity |
| QVQLVESGGGLVQAGGSLRLSCAASGITLTKNAMGWYRQAPGKERELVAGITRGSRTNYADSVKGRFTISRDNAKNTVYLQMNSLKPEDTAVYYCAASYWPYRGPVGGSKMYYWGQGTQVTVSS | high polyreactivity |
